Laboratory results reported in PMC9795466.

Target: thrombin (human, UniProt P00734;P00734 328-363;364-622)
Experiment: organic electrochemical transistor

Which Kd does the source give for TTTTTAGTCCGTGGTAGGGCAGGTTGGGGTGACT (ssDNA, 5' DBCO-TEG) [DBCO-HD22 thrombin aptamer] here?
The Kd was 103 ± 44 nM.
